The target of test [1] is Gc protein in CCHFV-YL16070-infected Vero E6 cells (Crimean-Congo hemorrhagic fever virus, …, strain). Briefly: western blot. The settings on record: one partner purified. A general note: A western blot detects proteins with antibodies after separation by electrophoresis.
For test [2], the target named is T1, sGc-S-tag (Gc ectodomain of CCHFV-YL16070 with an S-tag) (Crimean-Congo hemorrhagic fever virus, …, strain, biotin (labelled for BLI)).
T1 construct: not shown: S-tag, N-terminal, kept
Briefly: BLI; […] (25 ug/mL), […]; PBS with 0.1% BSA and 0.02% Tween-20; association 600 s, dissociation 600 s; Octet-Red 96. Conditions: both partners purified. (In general: Biolayer interferometry detects binding as a change in optical thickness at a sensor tip.)

B1: Gc8 monoclonal antibody (antibody, V domains shown)
VH: QVQLQQPGAEVVKPGASVKMSCKASGYTFTSYSMHWVKQTPGQGLEWIGAIYPGNGDTSYNQKFKGKATLTADKSSSTAYMQLSSLTSEDSAGYYCARGDQYYGYFDFWGQGTTLTVSS
VL: DIQMTQSPASLSASVGETVTITCRTSENIYSFLAWYQQKQGKSPQRLVSHAKALAEGVPSRFSGSGTGTQFSLKINSLQPEDFGSYYCQHHYGIPLTFGAGTKLELK
notes: also called mAb Gc8; copies: 2 + 2
As usually defined, the Kd is the concentration at which binding is half-saturated. A low value points to tighter binding. Turning to B1, the binding result in test [1] is given as “binds”. Besides, the Kd in test [2] came to 0.0834 nM.

B2: Gc13 monoclonal antibody (antibody, V domains shown)
VH: QVQLQQSGPEVVRPGVSVKISCKGSGYTFTDYATHWVKQSHVKSLEWIGVISTYNGETDCNQKFKGKATMTVDKSSSTAYMELARLTSEDSAIYYCANGYYQAMDYWGQGTSVTVSS
VL: DIQMTQTPSSLSASLGDRVTISCRASQDISNYLNWYQQRPDGTLKLLIYYTSRLHSGVPSRFSGSGSGTDYSLTISNLEQEDIATYFCQQGSTLPWTFGGGTKLEIK
notes: also called mAb Gc13; copies: 2 + 2
B2: the binding result in test [1] was “binds”. For the same molecule, in test [2], the Kd is 0.0324 nM.

The values are drawn from article PMC10863865 (PLOS Pathogens, 2024).
